Reference: article PMC11141940

Target: MADD with deletion of exon 30 (dex30), MAC-tagged (human) (UniProt Q8WXG6)
Experiment: affinity purification with mass spectrometry + proximity labelling; AP-MS and BioID with MAC-tagged MADD (wild-type or dex30) in Flp-In T-REx 293 cells; the text does not tell which of the two approaches gave this result (Figure 7)

fold change of relative abundance against wild-type MADD: 24 fold
Substance: ubiquitin-specific peptidase 9 X-linked (from UniProt Q93008 1-2554) (natural protein)
